Publication PMC5912162 (Bioconjugate chemistry, 2010)

Key:
[1] = test system: KRAS2 G12D 20-mer RNA; conditions: cited from earlier work
[2] = in vivo; conditions: mouse, iv, 2 nmol, total radioactivity, Tissue distribution
[3] = in vivo; conditions: mouse, iv, total radioactivity
[4] = test system: human CAPAN2 (G12 V) pancreatic cancer xenografts; conditions: mouse, in vivo
[5] = mouse, in vivo

| Compound | Tm [1] | tissue uptake at 24 h ([2]; blood) | tissue uptake at 24 h ([2]; heart) | tissue uptake at 24 h ([2]; intestine) | tissue uptake at 24 h ([2]; kidneys) | tissue uptake at 24 h ([2]; liver) | tissue uptake at 24 h ([2]; lungs) | tissue uptake at 24 h ([2]; muscle) | tissue uptake at 24 h ([2]; spleen) | tissue uptake at 24 h ([2]; tumor) | tissue to tissue ratio at 24 h [3] | Decrease of K/T ratio by added Gdn probes [4] | Decrease of kidney accumulation by added Gdn probes [4] | Breakdown fragments in urine [5] | Free 111In (void volume peak) in urine, share of radioactivity [5] | Intact probe peak (eluting at 9 min) in urine, share of radioactivity [5] |
| --- | --- | --- | --- | --- | --- | --- | --- | --- | --- | --- | --- | --- | --- | --- | --- | --- |
| Cc1cn(CC(=O)N(CCNC(=O)CN(CCNC(=O)CN(CCNC(=O)CN(CCNC(=O)CN(CCNC(=O)CN(CCNC(=O)CN(CCNC(=O)CN(CCNC(=O)CN(CCNC(=O)CN(CCNC(=O)COCCOCCNC(=O)COCCOCCNC(=O)[C@H](CNC(=O)[C@H](CNC(=O)[C@H](CNC(=O)COCCOCCNC(=O)CN2CCN(CC(=O)O)CCN(CC(=O)O)CCN(CC(=O)O)CC2)NC(=O)COCCOCCNC(=O)CN2CCN(CC(=O)O)CCN(CC(=O)O)CCN(CC(=O)O)CC2)NC(=O)[C@H](CNC(=O)COCCOCCNC(=O)CN2CCN(CC(=O)O)CCN(CC(=O)O)CCN(CC(=O)O)CC2)NC(=O)COCCOCCNC(=O)CN2CCN(CC(=O)O)CCN(CC(=O)O)CCN(CC(=O)O)CC2)NC(=O)[C@H](CNC(=O)[C@H](CNC(=O)COCCOCCNC(=O)CN2CCN(CC(=O)O)CCN(CC(=O)O)CCN(CC(=O)O)CC2)NC(=O)COCCOCCNC(=O)CN2CCN(CC(=O)O)CCN(CC(=O)O)CCN(CC(=O)O)CC2)NC(=O)[C@H](CNC(=O)COCCOCCNC(=O)CN2CCN(CC(=O)O)CCN(CC(=O)O)CCN(CC(=O)O)CC2)NC(=O)COCCOCCNC(=O)CN2CCN(CC(=O)O)CCN(CC(=O)O)CCN(CC(=O)O)CC2)C(=O)Cn2cnc3c(=O)[nH]c(N)nc32)C(=O)Cn2ccc(N)nc2=O)C(=O)Cn2ccc(N)nc2=O)C(=O)Cn2cnc3c(N)ncnc32)C(=O)Cn2cc(C)c(=O)[nH]c2=O)C(=O)Cn2ccc(N)nc2=O)C(=O)Cn2cnc3c(N)ncnc32)C(=O)Cn2cnc3c(=O)[nH]c(N)nc32)C(=O)Cn2ccc(N)nc2=O)CC(=O)NCCN(CC(=O)NCCN(CC(=O)NCCOCCOCC(=O)N[C@@H]2CSSC[C@H](C(N)=O)NC(=O)[C@@H](CCCCN)NC(=O)[C@@H](CO)NC2=O)C(=O)Cn2ccc(N)nc2=O)C(=O)Cn2ccc(N)nc2=O)c(=O)[nH]c1=O [WT8900, (DOTA-AEEA)8-PDAP^3-AEEA2-GCCAtCAGCTCC-AEEA-D(Cys-Ser-Lys-Cys)] | 75.9 ± 0.5 °C | 0.018 ± 0.001 %ID/g | 0.035 ± 0.005 %ID/g | 0.048 ± 0.004 %ID/g | 29.6 ± 9.21 %ID/g | 0.152 ± 0.012 %ID/g | 0.096 ± 0.021 %ID/g | 0.04 ± 0.01 %ID/g | 0.075 ± 0.005 %ID/g | 0.143 ± 0.011 %ID/g |  |  |  |  |  |  |
| Cc1cn(CC(=O)N(CCNC(=O)CN(CCNC(=O)CN(CCNC(=O)CN(CCNC(=O)CN(CCNC(=O)CN(CCNC(=O)CN(CCNC(=O)CN(CCNC(=O)CN(CCNC(=O)CN(CCNC(=O)COCCOCCNC(=O)COCCOCCNC(=O)[C@H](CNC(=O)COCCOCCNC(=O)CN2CCN(CC(=O)O)CCN(CC(=O)O)CCN(CC(=O)O)CC2)NC(=O)COCCOCCNC(=O)CN2CCN(CC(=O)O)CCN(CC(=O)O)CCN(CC(=O)O)CC2)C(=O)Cn2cnc3c(=O)[nH]c(N)nc32)C(=O)Cn2ccc(N)nc2=O)C(=O)Cn2ccc(N)nc2=O)C(=O)Cn2cnc3c(N)ncnc32)C(=O)Cn2cnc3c(N)ncnc32)C(=O)Cn2ccc(N)nc2=O)C(=O)Cn2cnc3c(N)ncnc32)C(=O)Cn2cnc3c(=O)[nH]c(N)nc32)C(=O)Cn2ccc(N)nc2=O)CC(=O)NCCN(CC(=O)NCCN(CC(=O)NCCOCCOCC(=O)N[C@@H]2CSSC[C@H](C(N)=O)NC(=O)[C@@H](CCCCN)NC(=O)[C@@H](CO)NC2=O)C(=O)Cn2ccc(N)nc2=O)C(=O)Cn2ccc(N)nc2=O)c(=O)[nH]c1=O [WT5204, (DOTA-AEEA)2-PDAP^1-AEEA2-GCCAaCAGCTCC-AEEA-D(Cys-Ser-Lys-Cys)] | 68.0 ± 1.2 °C | 0.049 ± 0.005 %ID/g | 0.042 ± 0.004 %ID/g | 0.079 ± 0.008 %ID/g | 19 ± 2.34 %ID/g | 0.248 ± 0.033 %ID/g | 0.093 ± 0.009 %ID/g | 0.046 ± 0.006 %ID/g | 0.105 ± 0.012 %ID/g | 0.144 ± 0.014 %ID/g |  |  |  |  |  |  |
| (Gd-DOTA-AEEA)2-PDAP^1-AEEA2-GCCAaCAGCTCC-AEEA-D(Cys-Ser-Lys-Cys) (disulfide) [WT5512] | 68.0 ± 1.0 °C |  |  |  |  |  |  |  |  |  |  |  |  |  |  |  |
| Cc1cn(CC(=O)N(CCNC(=O)CN(CCNC(=O)CN(CCNC(=O)CN(CCNC(=O)CN(CCNC(=O)CN(CCNC(=O)CN(CCNC(=O)CN(CCNC(=O)CN(CCNC(=O)CN(CCNC(=O)COCCOCCNC(=O)COCCOCCNC(=O)[C@H](CNC(=O)[C@H](CNC(=O)[C@H](CNC(=O)COCCOCCNC(=O)CN2CCN(CC(=O)O)CCN(CC(=O)O)CCN(CC(=O)O)CC2)NC(=O)COCCOCCNC(=O)CN2CCN(CC(=O)O)CCN(CC(=O)O)CCN(CC(=O)O)CC2)NC(=O)[C@H](CNC(=O)COCCOCCNC(=O)CN2CCN(CC(=O)O)CCN(CC(=O)O)CCN(CC(=O)O)CC2)NC(=O)COCCOCCNC(=O)CN2CCN(CC(=O)O)CCN(CC(=O)O)CCN(CC(=O)O)CC2)NC(=O)[C@H](CNC(=O)[C@H](CNC(=O)COCCOCCNC(=O)CN2CCN(CC(=O)O)CCN(CC(=O)O)CCN(CC(=O)O)CC2)NC(=O)COCCOCCNC(=O)CN2CCN(CC(=O)O)CCN(CC(=O)O)CCN(CC(=O)O)CC2)NC(=O)[C@H](CNC(=O)COCCOCCNC(=O)CN2CCN(CC(=O)O)CCN(CC(=O)O)CCN(CC(=O)O)CC2)NC(=O)COCCOCCNC(=O)CN2CCN(CC(=O)O)CCN(CC(=O)O)CCN(CC(=O)O)CC2)C(=O)Cn2cnc3c(=O)[nH]c(N)nc32)C(=O)Cn2ccc(N)nc2=O)C(=O)Cn2ccc(N)nc2=O)C(=O)Cn2cnc3c(N)ncnc32)C(=O)Cn2cnc3c(N)ncnc32)C(=O)Cn2ccc(N)nc2=O)C(=O)Cn2cnc3c(N)ncnc32)C(=O)Cn2cnc3c(=O)[nH]c(N)nc32)C(=O)Cn2ccc(N)nc2=O)CC(=O)NCCN(CC(=O)NCCN(CC(=O)NCCOCCOCC(=O)N[C@@H]2CSSC[C@H](C(N)=O)NC(=O)[C@@H](CCCCN)NC(=O)[C@@H](CO)NC2=O)C(=O)Cn2ccc(N)nc2=O)C(=O)Cn2ccc(N)nc2=O)c(=O)[nH]c1=O [WT8910, (DOTA-AEEA)8-PDAP^3-AEEA2-GCCAaCAGCTCC-AEEA-D(Cys-Ser-Lys-Cys)] | 66.9 ± 0.5 °C | 0.012 ± 0.002 %ID/g | 0.037 ± 0.006 %ID/g | 0.043 ± 0.006 %ID/g | 13.9 ± 2.11 %ID/g | 0.104 ± 0.015 %ID/g | 0.207 ± 0.031 %ID/g | 0.03 ± 0.004 %ID/g | 0.056 ± 0.009 %ID/g | 0.113 ± 0.014 %ID/g | 6.5 ± 1 | more than 5 fold | 2 fold |  |  |  |
| (Gd-DOTA-AEEA)8-PDAP^3-AEEA2-GCCAaCAGCTCC-AEEA-D(Cys-Ser-Lys-Cys) (disulfide) [WT10144] | 66.8 ± 0.9 °C |  |  |  |  |  |  |  |  |  |  |  |  |  |  |  |
| Cc1cn(CC(=O)N(CCNC(=O)CN(CCNC(=O)CN(CCNC(=O)CN(CCNC(=O)CN(CCNC(=O)CN(CCNC(=O)CN(CCNC(=O)CN(CCNC(=O)CN(CCNC(=O)CN(CCNC(=O)COCCOCCNC(=O)COCCOCCNC(=O)[C@H](CNC(=O)COCCOCCNC(=O)CN2CCN(CC(=O)O)CCN(CC(=O)O)CCN(CC(=O)O)CC2)NC(=O)COCCOCCNC(=O)CN2CCN(CC(=O)O)CCN(CC(=O)O)CCN(CC(=O)O)CC2)C(=O)Cn2cnc3c(=O)[nH]c(N)nc32)C(=O)Cn2ccc(N)nc2=O)C(=O)Cn2ccc(N)nc2=O)C(=O)Cn2cnc3c(N)ncnc32)C(=O)Cn2cc(C)c(=O)[nH]c2=O)C(=O)Cn2ccc(N)nc2=O)C(=O)Cn2cnc3c(N)ncnc32)C(=O)Cn2cnc3c(=O)[nH]c(N)nc32)C(=O)Cn2ccc(N)nc2=O)CC(=O)NCCN(CC(=O)NCCN(CC(=O)NCCOCCOCC(=O)N[C@@H]2CSSC[C@H](C(N)=O)NC(=O)[C@@H](CCCCN)NC(=O)[C@@H](CO)NC2=O)C(=O)Cn2ccc(N)nc2=O)C(=O)Cn2ccc(N)nc2=O)c(=O)[nH]c1=O [WT5195, (DOTA-AEEA)2-PDAP^1-AEEA2-GCCAtCAGCTCC-AEEA-D(Cys-Ser-Lys-Cys)] | 78.7 ± 0.6 °C | 0.02 ± 0.01 %ID/g | 0.028 ± 0.008 %ID/g | 0.048 ± 0.007 %ID/g | 18.4 ± 1.89 %ID/g | 0.147 ± 0.015 %ID/g | 0.217 ± 0.257 %ID/g | 0.038 ± 0.007 %ID/g | 0.079 ± 0.006 %ID/g | 0.135 ± 0.034 %ID/g |  |  |  | not detected | less than 1% | more than 99% |
